According to the supplement of paper PMC9732359:
± gives the uncertainty stated by the source.

Experiment: protein stability index of a GFP-peptide fusion (yeast GPS) (PSI 1-4); higher = more stable; sorted into four equal gates, so the index is relative within each strain
Conditions: pdr5∆
Procedure, shortened: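 Plasmids in a pooled yeast library fused tiled 17-residue yeast protein peptides downstream of GFP and also expressed Cherry. Mid-log cultures grown without leucine were sorted into four equal gates by GFP/Cherry fluorescence ratio. Each gate's plasmids were PCR-amplified and Illumina-sequenced, and reads were matched to strains by barcodes. The protein stability index is derived by multiplying each gate's read frequency by its gate number and summing the results.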

First: EEGETSRPLKKVKILEQ [SWI3]
Second: EEGINKFKKEKFDIIIV [SRP54]
The protein stability index of the first is higher: 3.28 ± 0.092 for the first, 2.61 ± 0.042 for the second.

Same assay, conditions: san1∆

Going from DLMDEELRKHAQKRVSN [SKI6] to DLSEKILNDIETLEHNP [BRR2], the protein stability index rises from 2.8 ± 0.085 to 3.05 ± 0.055.

Going from DMFEMSDEEENNNNKSI [SSN2] to DMLTWVDSNLPDDEKFT [RPC40], the protein stability index falls from 3.32 ± 0.17 to 2.56 ± 0.16.

Compared with DNEEASVKLDLQDDEDH [BRN1], DNFSPHQNVIIGSNGSG [SMC3] is lower in protein stability index: 3.05 ± 0.071 for the first, 2.78 ± 0.088 for the second.

First: DNGGTILGIAGEDFAVL [PRE7]
Second: DNIRYATALQTCAGGRL [SMC2]
The protein stability index of the first is higher: 3.34 ± 0.14 for the first, 2.8 ± 0.11 for the second.

DNIYRNLQKIDKDSEEL [MED4] and DNKEKDFELEISWCSLS [PRE10] are within error of each other in protein stability index: 2.85 ± 0.049 for the first, 2.87 ± 0.13 for the second.

Going from DNLLEMSDHSLDKLNCA [RRP6] to DNLLLNLEQINEDLEDG [REC8], the protein stability index falls from 3.22 ± 0.1 to 2.71 ± 0.08.

First: DNVNSTTGSIFEKDLMA [BRN1]
Second: DNVSFIEEAKSIRRQDY [REC8]
The protein stability index of the first is lower: 3.07 ± 0.071 for the first, 3.28 ± 0.09 for the second.

Going from DPASFYLFDEIDAALDK [SMC3] to DPEKDSINATALAFGYV [SIN4], the protein stability index falls from 2.61 ± 0.083 to 1.52 ± 0.15.

Going from DPLLSLYNFLHKYVLTL [RGR1] to DPPNEGDPFDYKAQADT [RPB3], the protein stability index rises from 2.49 ± 0.05 to 3.34 ± 0.12.

Compared with DPQHKAIRRDARYNWIC [RPL15A], DPVLDWRKSDRELTKNI [SIR4] is lower in protein stability index: 2.92 ± 0.16 for the first, 2.52 ± 0.16 for the second.

First: DQFHRDTISAITHQLNN [RPC25]
Second: DQFIRHVLRGVESPDKN [YCG1]
The protein stability index of the first is lower: 1.84 ± 0.076 for the first, 3.18 ± 0.14 for the second.

First: DQFITSLKCTDPYELKG [ITC1]
Second: DQKIWPYLEKYPEYDQI [SSN3]
The protein stability index of the first is lower: 2.78 ± 0.088 for the first, 3.11 ± 0.065 for the second.

First: DQKPIEHIKEGSEIAIS [SWI3]
Second: DQKTGRAKSSSHLFNEY [RPN4]
The protein stability index of the first is lower: 2.87 ± 0.064 for the first, 3.39 ± 0.12 for the second.

Compared with DQNPIQVVVDAITNTGP [RPS5], DQQSPWLLRLELDRAAM [RPO21] is lower in protein stability index: 2.76 ± 0.061 for the first, 1.93 ± 0.13 for the second.

First: DQWLEEYKKHFPPNLEK [UBP6]
Second: DRFKYRSVDRAGRKFKS [POP4]
The protein stability index of the first is lower: 2.88 ± 0.05 for the first, 3.52 ± 0.097 for the second.

Going from DRFPLKLREPVARFLHF [ITC1] to DRQLHEISTSKKNNLEF [RPN14], the protein stability index rises from 1.79 ± 0.12 to 2.93 ± 0.071.

Going from DRRKARKAYFTAPSSER [RPL26B] to DRTMLAPMDFAIVVGWR [FAS1], the protein stability index falls from 3.12 ± 0.082 to 2.68 ± 0.062.

Compared with DRTQDRADVEDESNDID [RPC37], DSEGSIKQTSDESTIKR [ECM29] is higher in protein stability index: 3.13 ± 0.11 for the first, 3.43 ± 0.068 for the second.

DSFENYFNQLKPYYFSN [RPN12] and DSFSVPNRLVKELQYDN [PRE2] are within error of each other in protein stability index: 2.97 ± 0.058 for the first, 3.09 ± 0.11 for the second.

First: DSFTMPNISHSNIDYQT [SNF2]
Second: DSLKKLLPQWDDDQIES [ARP9]
The protein stability index of the first is lower: 2.49 ± 0.13 for the first, 2.83 ± 0.071 for the second.

First: DSLNDDLNKENKLLRRK [YIL149C/MLP2]
Second: DSLTRAVKDQQKYTKEM [SNF2]
The protein stability index of the first is higher: 3.01 ± 0.15 for the first, 1.25 ± 0.15 for the second.

DSQIVTPGELVTDDPIW [RRP4] and DSRTTTGAYIANRVTDK [PRE3] are within error of each other in protein stability index: 2.76 ± 0.095 for the first, 2.89 ± 0.11 for the second.

Compared with DSSTTSSNSQQSTPQPD [ITC1], DSTVVYPLPKFPTTSHE [MED8] is higher in protein stability index: 2.69 ± 0.044 for the first, 2.92 ± 0.046 for the second.

First: DSVAAIGIPVNKASLAQ [QCR2]
Second: DSYLILDTLPSEFDSRV [RPT5]
The protein stability index of the first is lower: 2.52 ± 0.081 for the first, 3.23 ± 0.062 for the second.

First: DTFLPPPPPPPSNFEIN [PRP8]
Second: DTLLLLPTDGGLTSRLQ [POP4]
The protein stability index of the first is lower: 2.34 ± 0.04 for the first, 3.13 ± 0.095 for the second.

First: DTNAPVAATITSSQKEP [SRB8]
Second: DTNNEADLMALENATWT [SNF12]
The protein stability index of the first is higher: 3.04 ± 0.086 for the first, 2.64 ± 0.087 for the second.

First: DTNSSKPKNTKENLSKS [SIR4]
Second: DTQTFSVLLQQLLTPGS [YGL172W/NUP49]
The protein stability index of the first is higher: 2.05 ± 0.15 for the first, 1.36 ± 0.1 for the second.

Going from DTSAEKDQIQAGKWFDP [SIR4] to DTSYKIDGKTVSYKDYS [SMC1], the protein stability index falls from 3.38 ± 0.12 to 2.58 ± 0.046.

Going from DTVNSALENDVATNIVN [YML103C/NUP188] to DTYRTLMEEIESLKKEL [YIL149C/MLP2], the protein stability index rises from 3.09 ± 0.046 to 3.4 ± 0.07.

First: DVIAWKNVLANSIWGSS [ITC1]
Second: DVKTAEEASQLIEYMEN [NUT1]
The protein stability index of the first is higher: 3.49 ± 0.12 for the first, 3.05 ± 0.08 for the second.

First: DVMDELITSSARKELPI [SIR3]
Second: DVRRLKKNVWRSINNLI [BRN1]
The protein stability index of the first is higher: 2.7 ± 0.27 for the first, 1.06 ± 0.15 for the second.

Going from DVTPADDLKQKKEELVE [RPO31] to DWFTYSYFYRRIHVNPS [BRR2], the protein stability index falls from 3.08 ± 0.15 to 1.53 ± 0.057.

DYMYENGKLTSANERLF [YML031W/NDC1] and DYPSTSLDIRHDFIKGL [NUT1] are within error of each other in protein stability index: 3.1 ± 0.11 for the first, 3.14 ± 0.057 for the second.

Going from DYRPAEETEAQAEPVEA [RPS3] to DYSKPNLPPHYALFLKA [SSN2], the protein stability index falls from 3.14 ± 0.038 to 1.78 ± 0.11.

First: DYYYEDAGSNQYYVTQH [SWI1]
Second: EAESLLQFHVATYMDND [RPO21]
The protein stability index of the first is higher: 3.09 ± 0.14 for the first, 2.7 ± 0.073 for the second.

Compared with EAINGFKDETISKKIIG [SIR3], EALQYDPQPFLKHVLQL [SNU114] is lower in protein stability index: 2.95 ± 0.082 for the first, 2.35 ± 0.075 for the second.

First: EAMYKLQLASLQQKQRD [SMC3]
Second: EAQDEASLQQQQQQDLQ [SNF6]
The protein stability index of the first is lower: 2.52 ± 0.087 for the first, 3.12 ± 0.073 for the second.

Going from EARFWHLVELLLVFRNA [YDL116W/NUP84] to EATSNTNSEDKLSKVQL [MED4], the protein stability index rises from 2.06 ± 0.085 to 2.77 ± 0.087.

First: EAVEIPVNSADGKEDVE [SME1]
Second: ECGTGTTIHTFNRKENP [RPN14]
The protein stability index of the first is higher: 2.77 ± 0.04 for the first, 2.21 ± 0.12 for the second.

Compared with ECSKDMKEDGLSFVDIV [SIR4], EDDESLGHKELKVRKGH [RPB2] is lower in protein stability index: 3.1 ± 0.088 for the first, 2.45 ± 0.076 for the second.

Compared with EDDNTPAGHAGNPTNIS [YDL088C/ASM4], EDDSSNSCFSDGSQQNL [REC8] is higher in protein stability index: 2.91 ± 0.052 for the first, 3.65 ± 0.12 for the second.

Compared with EDDTQIVTGNLVLDLLT [IRR1], EDEDEDLFGDSNKSNST [SSN2] is higher in protein stability index: 2.26 ± 0.085 for the first, 2.86 ± 0.079 for the second.

Compared with EDEFIVQHDQILVMETS [SWP82], EDFPIDTWANGETIKSN [SEM1] is higher in protein stability index: 2.33 ± 0.082 for the first, 3.13 ± 0.2 for the second.

EDILYYSTCPSETDLND [SRB8] and EDLFETISQALLNAADR [PUP3] are within error of each other in protein stability index: 2.14 ± 0.11 for the first, 1.89 ± 0.16 for the second.

First: EDPKRRADTMDFKTDVD [YJL039C/NUP192]
Second: EDSSILQSIVNEISRNG [PCI8]
The protein stability index of the first is higher: 3.4 ± 0.096 for the first, 3 ± 0.054 for the second.

Compared with EDTLSGYDPIVSTRAID [PRP28], EDVALNEQVKKFFLNNV [NAS6] is lower in protein stability index: 3.13 ± 0.15 for the first, 2.44 ± 0.051 for the second.

Going from EDVDDEELDITPLFPID [IRR1] to EDYPMSSEIKIYYNELQ [SIR4], the protein stability index falls from 3 ± 0.1 to 2.53 ± 0.25.

EEAKEEVTEEQAEATEW [RPS0A] and EEASQLIEYMENDAKKS [NUT1] are within error of each other in protein stability index: 3.02 ± 0.13 for the first, 3.15 ± 0.061 for the second.

Compared with EEDDEGELEQAQAWINL [RPN7], EEDISDLWNNFGNIMDN [RRP6] is lower in protein stability index: 3.43 ± 0.11 for the first, 3.02 ± 0.052 for the second.

In the case of EEGETSRPLKKVKILEQ [SWI3], the protein stability index is reported as 2.86 ± 0.08.
